Several values for one entry are separate records, joined by “and”; a condition that tells them apart may be missing. Equal entries are not always repeated. Where two headings read alike, the source gives them in different places. Marks after values point to notes of the source that are not given here. Ends that are not written are not given here.
Experiments:
[1] = biological target: human μ opioid receptor (Homo sapiens, UniProt P35372); experiment: Radioligand competition binding assay, biphalin series, μ opioid receptor
Method: (§1) Competition binding experiments were conducted by incubating membrane protein to equilibrium in triplicate in the presence of a fixed concentration of radioligand and increasing concentrations (0.1 nM to 10 μM) of test compound in 100 μL final volume. The radioligands used were specific for each receptor type, and the assay conditions are described in Table BIP6.3. Following incubations, the membranes were rapidly filtered through GF/B filter plate (presoaked with 0.5% polyethyleneimine), washed four times with cold 50 mM Tris-HCl, pH 7.5, and the bound radioactivity was then measured. Non-specific binding was measured in the presence of excess naloxone (100 μM); this value was subtracted from the total binding to yield the specific binding at each test concentration.
(§2) The test compounds were stored under acidic condition to stabilize the PEG conjugation.
(§3) Ki (affinity of test compound) was obtained using the Cheng Prusoff correction using experimental Kd (affinity of radioligand) values that were previously determined under these assay conditions.

[2] = assay type: physicochemical
[3] = OGF release rate and stability of OGF; assay type: physicochemical; details: 160 hours at 37° C., pH 7.5 and 16 hours at 37° C., pH 10.0
[4] = biological target: human δ opioid receptor (Homo sapiens, UniProt P41143); experiment: Radioligand competition binding assay, biphalin series, δ opioid receptor
Method: as §1, §2, §3

[5] = due to rapid proteolysis and glomerular filtration; cited from earlier work
[6] = test system: rat red blood cells; experiment: Hemolysis assay, protegrin-1 series; assay type: cell-based; details: for hemolytic effect: rat red blood cells, 37° C., relative to 0.25% Triton X-100
Method: Approximately 10 mL of blood was drawn from one adult rat into Na Heparin tube and kept in ice until use. Red blood cells were washed three times with 10 mL of cold DPBS ((−) CaCl2 and (−) MgCl2) and collected by sequential centrifugation at 3,000 g for 5 min at 4° C. Pellets of red blood cells were resuspended with DPBS ((−) CaCl2 and (−) MgCl2) and the total volume was brought up to initial volume of blood drawn. One mL of resuspended red blood cells was resuspended with 49 mL of DPBS ((−) CaCl2 and (−) MgCl2). Incubation mixture was prepared by 400 fold dilution of stock solution of test compounds with final volume of 800 μl. Final concentration of test compounds was equimolar to that of respective unconjugated compounds. Hemolysis incubation was done at 37° C. with mild agitation. For releasable conjugates, test compounds were preincubated in 1×PBS at 37° C. prior to hemolysis assay. Incubation mixture was centrifuged at 3,000 g for 5 min at 4° C., and the absorbance at 550 nm was read from supernatant.

[7] = Pharmacokinetic study of protegrin conjugates, single IV dose in rats; assay type: in vivo, Sprague-Dawley rats; details: […] equivalent protein mass IV
Method: The weight range of the animals was 313-346 grams. All animals were food fasted overnight.
Following the last collection point, the animals were euthanized. Bioanalytical analysis: analysis of the plasma samples was conducted using non-validated LC-MS/MS methods.

[8] = Pharmacokinetic study of V681 (V13AD) conjugates, single IV dose in rats; assay type: in vivo, Sprague-Dawley rats; details: 1.0 mg/kg equivalent protein mass IV
Description: The weight range of the animals was 311-346 grams. All animals were food fasted overnight. […] The predose sample was collected from the JVC.
Following the last collection point, the animals were euthanized.

[9] = test system: rat red blood cells; experiment: Hemolysis assay, V681(V13AD) series; assay type: cell-based; details: 37° C., relative to 0.25% Triton X-100
Method: Hemolysis assay. Approximately 10 mL of blood was drawn from one adult rat into Na Heparin tube and kept in ice until use. Red blood cells were washed three times with 10 mL of cold DPBS ((−) CaCl2 and (−) MgCl2) and collected by sequential centrifugation at 3,000 g for 5 min at 4° C. Pellets of red blood cells were resuspended with DPBS ((−) CaCl2 and (−) MgCl2) and the total volume was brought up to initial volume of blood drawn. One mL of resuspended red blood cells was resuspended with 49 mL of DPBS ((−) CaCl2 and (−) MgCl2). Incubation mixture was prepared by 400 fold dilution of stock solution of test compounds with final volume of 800 μl. Final concentration of test compounds was equimolar to that of respective unconjugated compounds. Hemolysis incubation was done at 37° C. with mild agitation.
For releasable conjugates, test compounds were preincubated in 1×PBS at 37° C. prior to hemolysis assay. Incubation mixture was centrifuged at 3,000 g for 5 min at 4° C., and the absorbance at 550 nm was read from supernatant.

[10] = biological target: T1, GPR54 G-Protein coupled receptor (Homo sapiens, UniProt Q969F8); experiment: FLIPR calcium flux agonist assay on GPR54; assay type: cell-based; details: agonist activation at GPR54; no release incubation
T1 construct: host or cells: Chem-1 host cells

[11] = pH 5
[12] = Pre-incubated in assay buffer pH 7.5 at 37° C. (72 h biphalin and di-CAC; 20 h di-C2 and di-SBC)
[13] = sample diluted on the day of the assay (unreleased)
[14] = test compound in plasma (non-releasable conjugates, native PG-1), Mean ± SD
[15] = protegrin-1 in plasma (released or native)

Chain of human μ opioid receptor (P35372 whole entry): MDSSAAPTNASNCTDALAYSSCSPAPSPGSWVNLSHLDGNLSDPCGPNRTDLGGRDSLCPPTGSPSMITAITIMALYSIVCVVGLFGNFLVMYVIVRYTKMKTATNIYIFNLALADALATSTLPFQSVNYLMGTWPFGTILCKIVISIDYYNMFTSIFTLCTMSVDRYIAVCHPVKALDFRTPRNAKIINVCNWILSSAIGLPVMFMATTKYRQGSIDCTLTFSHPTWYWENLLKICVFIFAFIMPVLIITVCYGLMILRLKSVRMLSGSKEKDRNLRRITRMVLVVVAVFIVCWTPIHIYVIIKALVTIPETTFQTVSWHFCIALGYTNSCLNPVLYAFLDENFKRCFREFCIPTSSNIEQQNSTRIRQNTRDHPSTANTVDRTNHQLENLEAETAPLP
Chain of human δ opioid receptor (P41143 whole entry): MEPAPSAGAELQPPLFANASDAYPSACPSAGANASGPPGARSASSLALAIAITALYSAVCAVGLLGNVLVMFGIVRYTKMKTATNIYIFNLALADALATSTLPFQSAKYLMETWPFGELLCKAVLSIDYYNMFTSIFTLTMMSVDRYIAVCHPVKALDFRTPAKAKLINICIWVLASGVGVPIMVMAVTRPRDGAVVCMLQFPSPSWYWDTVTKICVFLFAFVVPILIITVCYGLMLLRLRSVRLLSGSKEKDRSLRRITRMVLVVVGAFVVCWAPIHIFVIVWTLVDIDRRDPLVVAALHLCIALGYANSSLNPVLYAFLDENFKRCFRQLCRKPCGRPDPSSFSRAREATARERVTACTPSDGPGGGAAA
T1 sequence (Q969F8 whole entry): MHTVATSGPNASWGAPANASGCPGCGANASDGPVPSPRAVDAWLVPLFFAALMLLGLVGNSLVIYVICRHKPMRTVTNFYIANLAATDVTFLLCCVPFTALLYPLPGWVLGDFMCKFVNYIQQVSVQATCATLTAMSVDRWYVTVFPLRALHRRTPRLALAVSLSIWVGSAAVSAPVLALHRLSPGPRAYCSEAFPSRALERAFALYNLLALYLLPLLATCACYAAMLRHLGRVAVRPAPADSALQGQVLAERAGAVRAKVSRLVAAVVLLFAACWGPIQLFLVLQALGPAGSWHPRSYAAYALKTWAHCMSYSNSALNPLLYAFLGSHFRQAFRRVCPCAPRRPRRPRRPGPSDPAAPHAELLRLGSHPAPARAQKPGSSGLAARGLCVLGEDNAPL

## C[C@@H](NC(=O)[C@@H](N)Cc1ccc(O)cc1)C(=O)NCC(=O)N[C@@H](Cc1ccccc1)C(=O)NNC(=O)[C@H](Cc1ccccc1)NC(=O)CNC(=O)[C@@H](C)NC(=O)[C@@H](N)Cc1ccc(O)cc1 [Biphalin, reference compound]
[1]; [12]
  Ki: 3.1 nM
[1]; [13]
  Ki: 3.4 nM and 4.7 nM
[2]; 72 hour incubation in assay buffer, pH 7.5 at 37° C.
  stability of the peptide following incubation: remained stable

## CSCC[C@H](NC(=O)[C@H](Cc1ccccc1)NC(=O)CNC(=O)CNC(=O)[C@@H](N)Cc1ccc(O)cc1)C(=O)O [OGF, Opioid Growth Factor]
[3]
  stability of the peptide following pre-incubation: remained stable

## (C2-20K)2-biphalin [Di-C2-PEG2-FMOC-NHS-20K-biphalin]
[1]; [12]
  Ki: 10.1 nM
[1]; [13]
  Ki: 21.7 nM

## (CAC-20K)2-biphalin [Di-CAC-PEG2-FMOC-NHS-20K-biphalin]
[1]; [12]
  Ki: 13.7 nM
[1]; [13]
  Ki: 1120 nM

## (SBC-30K)2-biphalin
[2]; purification from the reaction mixture, even at acidic pH values
  stability of the conjugate: instability

## (SBC-30K)2-biphalin [Di-mPEG-SBC-30K-biphalin]
[4]; [12]
  Ki (nM), δ Opioid Receptor: not obtained

## (SPA-2K)2-biphalin [Di-mPEG-SPA-2K-biphalin]
[1]; 10 μM
  inhibition of specific binding at the highest test concentration: no measurable inhibition
[4]; 10 μM
  inhibition of specific binding at the highest test concentration: no measurable inhibition

## GHRH: growth hormone releasing hormone, stimulates growth hormone secretion from the anterior pituitary gland
[5]
  half-life: 0.167 to 0.333 h

## [Protegrin-1]-[PEG-di-ButyrAldehyde-5K]-[Protegrin-1] (RGGRLCYCRRRFCVCVGR-NH2; cysteine pairing not given here; also: two peptide copies linked by PEG-dibutyraldehyde 5K; UniProt P32194 131-148, looked up) [PG-1-PEG-5K-PG-1]
[6]; listed as PG1-ButyrALD-5K-PG1
  hemolytic effect: little hemolytic activity
[6]; listed as PG1-ButyrALD-PG1
  hemolytic effect: almost eliminated
[7]; [14]
  CL: 2.25 ± 0.154 mL/min/kg
  T1/2: 6.8 ± 0.65 h
  Vss: 0.248 ± 0.0221 L/kg

## [mono]-[mPEG2-20K]-[V681(V13AD)] [NHS-20K-V681 (V13AD)]
[8]
  AUCINF: 53.0 ± 1.1 µg·h/mL
  CL: 0.315 ± 0.0065 mL/min/kg
  Cmax: 5210 ± 211 ng/mL
  MRT: 7.6 ± 1.1 h
  T1/2: 5.8 ± 1.0 h
  Vss: 0.143 ± 0.0237 L/kg
  mean AUC as multiple of V681 (V13AD): 24 times
[9]
  hemolytic effects: almost eliminated

## [mono]-[mPEG-SMB-30K]-[V681(V13AD)] [SMB-30K-V681 (V13AD)]
[8]
  AUCINF: 158 ± 43 µg·h/mL
  CL: 0.11 ± 0.0267 mL/min/kg
  Cmax: 4380 ± 505 ng/mL
  MRT: 38.3 ± 18.2 h
  T1/2: 26.6 ± 12.5 h
  Vss: 0.235 ± 0.05 L/kg
  mean AUC as multiple of V681 (V13AD): 123 times
[9]
  hemolytic effects: almost eliminated

## dextran-butyraldehyde-40K-protegrin-1 (RGGRLCYCRRRFCVCVGR-NH2; cysteine pairing not given here; also: dextran-butyraldehyde 40K conjugate; UniProt P32194 131-148, looked up) [Dextran-PG1]
[6]
  hemolytic effect: almost eliminated

## mono-[mPEG2-ButyrAldehyde-40K]-[Kisspeptin-54] (GTSLSPPPESSGSPQQPGLSAPHSRQIPAPQGAVLVQREKDLPNYNWNSFGLRF-NH2; also: mPEG2-ButyrAldehyde 40K conjugate, site not given here; UniProt Q15726 68-121, looked up) [Ald40K-KP54]
[10]
  EC50 (nM): No activity

## mono-[mPEG2-CAC-FMOC-40K]-[PG-1] (RGGRLCYCRRRFCVCVGR-NH2; cysteine pairing not given here; also: releasable CAC-PEG2-FMOC 40K PEG, mono-conjugate, site not given here; UniProt P32194 131-148, looked up) [CAC-PEG2-FMOC-40K-PG-1, PG1 conjugate with a releasable linker]
[6]; conjugate preincubated for 96 hr in 1XPBS at 37° C.
  hemolytic effects relative to that from PG1: 60-70%
[7]; [15]
  T1/2 (hr): 0.13* hr
  Tmax: 1.8 min

## mono-mPEG-SBC-30K-ziconotide [SBC-ziconotide conjugate]
[11]
  stability of the conjugate: very unstable

From patent publication US20110166063A1 (priority 2008, published 2011)
